The record followed here is KR20150077887A (dated 2015).

This assay has as its target T1, NRS natively expressed in human cells (HeLa cell lysate) (human, UniProt O43776 1-548).
T1 construct: mature; Target of the western blot; also called human 세포에서 원래 발현된 NRS
T1 sequence (looked up): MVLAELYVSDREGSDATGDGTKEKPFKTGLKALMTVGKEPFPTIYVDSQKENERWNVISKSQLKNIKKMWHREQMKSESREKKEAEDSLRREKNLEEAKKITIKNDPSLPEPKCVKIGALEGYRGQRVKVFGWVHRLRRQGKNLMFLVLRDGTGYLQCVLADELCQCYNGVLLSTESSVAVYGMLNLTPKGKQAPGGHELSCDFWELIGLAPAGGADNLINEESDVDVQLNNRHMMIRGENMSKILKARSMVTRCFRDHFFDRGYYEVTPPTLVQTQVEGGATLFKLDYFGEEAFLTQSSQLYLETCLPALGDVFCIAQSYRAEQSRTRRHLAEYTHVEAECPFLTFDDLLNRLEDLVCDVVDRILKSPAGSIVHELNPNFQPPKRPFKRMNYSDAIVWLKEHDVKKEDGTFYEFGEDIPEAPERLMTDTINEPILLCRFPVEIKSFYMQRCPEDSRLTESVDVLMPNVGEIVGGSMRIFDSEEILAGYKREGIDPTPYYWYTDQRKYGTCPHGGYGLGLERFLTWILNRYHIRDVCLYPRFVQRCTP
Briefly: western blot on HeLa cell lysate with periplasmic scFv (clones from phage panning on NRS), anti-HA-HRP detection.

B1: SEQ ID NO 42 (scFv)
scFv: EVQLLESGGGLVQPGGSLRLSCAASGFTFSNYSMSWVRQAPGKGLEWVSVISPGSGSKYYADSVKGRFTISRDNSKNTLYLQMNSLRAEDTAVYYCARTATIFDYWGQGTLVTVSSGGGGSGGGGSGGGGSQSVLTQPPSASGTPGQRVTISCTGSSSNIGSNYVSWYQQLPGTAPKLLIYADSQRPSGVPDRFSGSKSGTSASLAISGLRSEDEADYYCGTWDDSLSAYVFGGGTKLTVL
notes: It is probably the same molecule as one of Biocon-N1 to N5
For the molecule B1, the binding result was “binds”.

B2: SEQ ID NO 70 (scFv)
scFv: EVQLLESGGGLVQTGGSLRLSCAASGFTFSDYAMSWVRQAPGKGLEWVSGISYSGGSTYYADSVKGRFTISRDNSKNTLYLQMNSLRAEDTAVYYCAKNSRHFDYWGQGTLVTVSSGGGGSGGGGSGGGGSQSVLTQPPSASGTPGQRVTISCSGSSSNIGSNDVTWYQQLPGTAPKLLIYSNSHRPSGVPDRFSGSKSGTSASLAISGLRSEDEADYYCGAWDDSLNGYVFGGGTKLTVL
notes: as for B1
Take B2: the binding result is given as “binds”.
